The test system of this data set is c-Myc, P01106-1. Put plainly: competition. The following applies: 2'-OMe; 50 uM pool vs myc PS site; FIG. 5 labels this pool SEQ ID NO:33.

In US5747253 one finds binding signal data, which are given here for one sequence.

c-Myc, P01106-1, sequence (P01106 16-454): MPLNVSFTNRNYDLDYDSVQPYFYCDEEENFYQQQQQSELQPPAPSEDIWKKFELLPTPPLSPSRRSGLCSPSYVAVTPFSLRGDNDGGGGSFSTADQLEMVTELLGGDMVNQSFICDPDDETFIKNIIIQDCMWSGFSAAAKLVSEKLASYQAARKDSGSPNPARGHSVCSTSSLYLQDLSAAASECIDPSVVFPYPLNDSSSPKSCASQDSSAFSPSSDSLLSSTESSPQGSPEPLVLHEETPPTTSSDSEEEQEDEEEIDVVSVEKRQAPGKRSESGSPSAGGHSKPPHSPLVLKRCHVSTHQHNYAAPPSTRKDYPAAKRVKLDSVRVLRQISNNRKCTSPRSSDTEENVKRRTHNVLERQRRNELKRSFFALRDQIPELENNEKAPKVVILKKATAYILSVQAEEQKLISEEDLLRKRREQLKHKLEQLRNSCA

With GCGNNNCNNNNNNCGC [2'-OMe pool X=C], the binding signal was 50 % inhibition.
